Measured values reported in patent US20160145654.

Target: IL-2-phaP fusion polypeptide on the surface of polymer particles (PHA granules), P04351
Sequence (P04351 whole entry, looked up, the tested form may be a part): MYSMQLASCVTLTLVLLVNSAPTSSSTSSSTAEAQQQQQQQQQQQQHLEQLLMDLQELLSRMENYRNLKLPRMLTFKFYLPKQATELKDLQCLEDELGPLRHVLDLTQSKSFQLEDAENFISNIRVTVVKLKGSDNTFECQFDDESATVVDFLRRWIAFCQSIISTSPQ

B1: bovine enterokinase (protein)
chain: IVGGSDSREGAWPWVVALYFDDQQVCGASLVSRDWLVSAAHCVYGRNMEPSKWKAVLGLHMASNLTSPQIETRLIDQIVINPHYNKRRKNNDIAMMHLEMKVNYTDYIQPICLPEENQVFPPGRICSIAGWGALIYQGSTADVLQEADVPLLSNEKCQQQMPEYNITENMVCAGYEAGGVDSCQGDSGGPLMCQENNRWLLAGVTSFGYQCALPNRPGVYARVPRFTEWIQSFLH
- fluorescence of IL-2-phaP particles stained with anti-IL-2-PE after 1 hr incubation with enterokinase (FACS): a smaller shift in fluorescence intensity indicates that a proportion of IL-2 has been cleaved from the particles
- fluorescence of IL-2-phaP particles stained with anti-IL-2-PE after 16 hours incubation with enterokinase (FACS): no IL-2 is detectable on the surface of the polymer particles, indicating the IL-2 has been cleaved from the polymer particles
